Assays:
latent TGFβ3 = biological target: T1, latent TGFβ3 (Homo sapiens (Human), UniProt P10600 21-412, limits assumed); test: Octet (bio-layer interferometry)
T1 sequence: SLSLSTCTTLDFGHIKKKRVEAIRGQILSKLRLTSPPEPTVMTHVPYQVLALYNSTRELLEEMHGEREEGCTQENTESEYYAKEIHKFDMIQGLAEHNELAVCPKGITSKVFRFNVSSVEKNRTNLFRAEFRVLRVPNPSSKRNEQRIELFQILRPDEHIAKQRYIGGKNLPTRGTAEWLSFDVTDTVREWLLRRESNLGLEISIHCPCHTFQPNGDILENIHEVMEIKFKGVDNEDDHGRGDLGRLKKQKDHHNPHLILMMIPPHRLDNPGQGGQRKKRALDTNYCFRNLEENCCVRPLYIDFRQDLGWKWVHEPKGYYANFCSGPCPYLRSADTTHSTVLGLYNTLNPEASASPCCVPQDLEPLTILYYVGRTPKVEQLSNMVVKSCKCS

latent TGFβ2 = biological target: T2, latent TGFβ2 (Chlorocebus aethiops (Green monkey) …, UniProt P61811 20-414); test: Octet (bio-layer interferometry)
T2 sequence: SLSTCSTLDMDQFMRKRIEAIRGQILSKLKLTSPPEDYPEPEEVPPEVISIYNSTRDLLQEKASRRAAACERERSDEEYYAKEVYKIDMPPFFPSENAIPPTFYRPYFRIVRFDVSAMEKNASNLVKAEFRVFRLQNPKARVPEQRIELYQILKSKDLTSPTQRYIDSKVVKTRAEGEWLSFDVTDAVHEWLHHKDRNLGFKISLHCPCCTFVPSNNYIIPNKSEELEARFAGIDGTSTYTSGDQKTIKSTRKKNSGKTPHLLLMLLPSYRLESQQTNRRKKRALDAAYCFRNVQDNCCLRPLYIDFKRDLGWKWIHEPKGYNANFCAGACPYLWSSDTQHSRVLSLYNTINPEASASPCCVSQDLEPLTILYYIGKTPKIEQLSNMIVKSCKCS

binding result (latent TGFβ3): no binding
binding result (latent TGFβ2): no binding
B1: Ab3 (antibody, V domains shown)
VH: EVQLLESGGGLVQPGGSLRLSCAASGFTFRNYAMSWVRQAPGKGLEWVSSISGSGGATYYADSVKGRFTISRDNSKNTLYLQMNSLRAEDTAVYYCARVSSGHWDFDYWGQGTLVTVSS
VL: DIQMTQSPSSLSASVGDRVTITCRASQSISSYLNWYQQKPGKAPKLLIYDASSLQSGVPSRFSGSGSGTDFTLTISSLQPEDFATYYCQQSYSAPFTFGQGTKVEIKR
notes: described as a fully human monoclonal antibody; Ab3-mIgG1 was used in vivo
